Results reported in US20160347831A1 (F HOFFMAN LA ROCHE, published 2016).

T1: Aβ fragment 1-16 (human)
T1 construct: also called Aβ1-16; Aβ16
T1 peptide: DAEFRHDSGYEVHHQK

T2: Aβ fragment 29-40 (human)
T2 peptide: GAIIGLMVGGVV

B1: VHH R3VQ (VHH)
VHH: EVQLQASGGGLVQTGDSLRLSCADSGSTFRNYNIGWFRQTPGQAREFVAAVSRTGISTHVADSLQGRFTISRDNAKNTVYLQMNSLKPEDTAVYSCAAGRPGVGAVNRAMDYDYWGQGTQVTVSS
notes: Expressed with a His tag or a Strep tag; also called R3VQ(His)-NH2 1; R3VQ-NH2 1; not shown: 6-Histidine tag (pET23) or Strep tag (pASK IBA2) from the vector
B2: R3VQ(His)-N-(DOTA/Gd) conjugate 2d (VHH)
VHH: B1 VHH
modifications: DOTA/Gd randomly distributed on lysine residues; average Gd/protein (1) 2 (3)
notes: Non-site-specific conjugate; not shown: 6-Histidine tag from pET23
B3: R3VQ(His)-N-(DOTA/Gd) conjugate 2c (VHH)
VHH: B1 VHH
modifications: DOTA/Gd randomly distributed on lysine residues; average Gd/protein (1) 2 (3)
notes: as for B2
B4: Aβ fragment 16-35 (peptide)
peptide: KLVFFAEDVGSNKGAIIGLM
notes: this fragment is not in the list of fragments tested (1-16, 10-20, 15-25, 22-35, 29-40); also called AP 16-35

How the values were obtained:
Aβ fragment 1-16 = molecular target: T1, Aβ fragment 1-16; experiment: competition ELISA with soluble Aβ fragments
Method: (§1) The binding affinity of VHHs was determined as previously described (Friguet B. et al., 1985, Immunol Methods, 77:305-19). Briefly, various concentrations of Aβ peptides (A13 fragments 1-16, 10-20, 15-25, 22-35 and 29-40) were incubated in solution overnight at 4° C. with a known quantity of VHH until equilibrium was reached. The VHH concentration used was determined by preliminary ELISA calibrations. Each mixture (100 μl) was transferred to a well of a microtiter plate previously coated with antigen and was incubated for 20 min at 4° C. The plates were washed with buffer 0.1% Tween 20 in PBS and bound VHHs were detected by adding beta-galactosidase-conjugated goat anti-rabbit Igs (Biosys, Compiegne, France) and 4-methylumbelliferyl […] (Sigma). Fluorescence was read (Fluoroskan, Labsystem, Finland) at 460 nm, after excitation at 355 nm. KD was estimated from the slope of the regression curve obtained by plotting the reciprocal of the fraction of bound antibody versus the reciprocal of the molar concentration of antigen.

Aβ fragment 29-40 = molecular target: T2, Aβ fragment 29-40; experiment: competition ELISA with soluble Aβ fragments
Method: as §1

A-beta 42 peptide (Aβ42) = molecular target: T3, A-beta 42 peptide (Aβ42) (human); experiment: competition ELISA in solution (Friguet method)
T3 construct: Synthetic peptide (Bachem); incubated to give the fibrillar form for immunisation; also called Aβ1-42; fibrillar synthetic Aβ42 peptide
Method: as §1

A-beta 40 (Aβ40) = molecular target: T4, A-beta 40 (Aβ40) (human); experiment: ELISA on biotinylated Aβ40 (or Aβ42)
T4 construct: ELISA methods say 'A-beta 40 or A-beta 42 (preferably A-beta 40)'; also called Aβ1-40; biotinylated A-beta 40

VHH R3VQ = molecular target: B1; experiment: competition ELISA, soluble Aβ fragment against antigen-coated plate
Method: as §1

T4 sequence (peptide, as listed by the source): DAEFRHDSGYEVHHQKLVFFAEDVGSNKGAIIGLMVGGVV
T3 sequence (peptide, as listed by the source): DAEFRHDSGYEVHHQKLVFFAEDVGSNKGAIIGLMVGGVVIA

B1
binding result (Aβ fragment 1-16): no binding
binding result (Aβ fragment 29-40): no binding
Kd (A-beta 42 peptide (Aβ42)): 17 nM

B2
binding in ELISA compared to the original VHH 1 (A-beta 40 (Aβ40)): ~10%

B3
binding in ELISA compared to the original VHH 1 (A-beta 40 (Aβ40)): ~10%

B4
IC50 (VHH R3VQ): 16 nM
